Assay results: US10106582B2, “Complex-formation-modulating agents and uses therefor” (Factor Therapeutics Limited, priority 2012, dated 2018)

Legend:
IGFBP-3 = molecular target: T1, IGFBP-3 (Homo sapiens, UniProt P17936); test: VN-peptide array: binding of IGFBP-3 to immobilized overlapping 16-mer VN peptides; details: spot stronger than negative controls = positive hit
T1 construct: purchased GroPep
Text: (§1) The inventors designed small-molecule VN-peptides that could potentially disrupt the formation of the IGF-I:IGFBP:VN trimeric or the IGF-II:VN dimeric complexes by binding to the IGFBPs and/or IGF-II and preventing their association with VN within the complex. To design peptides, the binding sites of IGFBP-3/-5 and IGF-II on VN were first determined using VN-peptide arrays. The entire VN protein sequence, excluding the signal peptide (residues 1-19), was divided into overlapping 16-mer peptides with 3AA frameshift/offset (for peptide sequences refer to Table 6) and immobilized onto cellulose membranes (peptide spotting was outsourced to PepMetric Technologies Inc). For a schematic of the arrangement of VN peptides and controls refer to FIG. 2. The resultant peptide arrays were incubated either with IGFBP-3, IGFBP-5 or IGF-II ligands, probed with the respective antibodies, the membranes developed using ECL, and imaged using the ChemiDoc™ XRS system (BioRad). The spots on the membrane were analysed using TotalLab array quantification software (TotalLab Ltd, Newcastle, England) identifying positive peptide spots by comparing each spot to the combined intensities of the negative controls.
(§2) The entire VN protein sequence, excluding the signal peptide (residues 1-19), was divided into overlapping 16-mer peptides with 3 amino acid (AA) frameshift/offset. This yielded 148 overlapping peptides covering the entire VN sequence (residues 20-478) (Table 6) with a resolution of 3 AA. Peptide synthesis and spotting onto a cellulose membrane were outsourced to PepMetric Technologies Inc. (Richmond, BC, Canada). For a diagrammatic illustration of the strategy used to divide an example amino acid sequence into peptides and to spot them onto the membrane, please refer to http://www.pepmetric.com/html/Pep-Overlap.html. The VN-overlapping peptides were generated using FMOC (9-fluorenylmethoxycarbonyl) Solid-Phase SPOT synthesis onto PEG-grafted amine-functionalized cellulose membrane (Whatman® 540 filter paper). The peptides were spotted onto the cellulose membrane in a 10×16 grid with each peptide being 10˜50 nM in concentration with >70% purity. Finally, these membranes were acetylated in order to cap the free ends of the spotted peptides preventing them from degradation during shipping and storage.
(§3) Along with the VN-peptides these membranes were also spotted with a positive control (i.e., universal binding peptides tested by the manufacturer to be positive for antibodies from goat, mouse, rat and chicken) and a negative control (ie. non-binding peptides as well as BSA) controls. For a schematic of the arrangement of VN-peptides and controls refer to FIG. 2 and for the sequence of each peptide corresponding to the grid number refer to Table 6. Four such replicate membranes were prepared and stored at room temperature in a clip sealed plastic bag. Long-term storage was at −20° C.
(§4) Methanol or ethanol was used to enhance the rehydration of peptide spots that might be hydrophobic. The peptides spotted onto the membranes were activated by incubating in 3 mL of 70% ethanol for five mins. The membranes were subsequently washed three times, 10 minutes each, in 10 mL TBS (Tris Buffered Saline; 8 g NaCl, 0.2 g KCl and 6.1 g Tris Base into 1000 mL of milliQ water, pH 7) with gentle rocking. Membrane blocking was performed by incubating in 10 mL casein-based membrane blocking buffer (MBS; Sigma-Aldrich) overnight at 4° C. The following day, the membranes were washed twice, 10 minutes each, in 10 mL TBS-T (TBS+0.05% Tween-20; pH 7).
(§5) Ligands used to test binding to VN-peptides were IGFBP-3, IGFBP-5 and IGF-II. For ligand binding, four separate solutions of 1 μg/mL ligand in 10 mL MBS buffer were prepared and each membrane was incubated in one of the four ligand solutions overnight at 4° C., with gentle rocking. […] The following day, the membranes were washed three times, 10 minutes each, in 10 mL TBS-T. […]

IGF-II = molecular target: T2, IGF-II (Homo sapiens, UniProt P01344); test: VN-peptide array: binding of IGF-II to immobilized overlapping 16-mer VN peptides; details: spot stronger than negative controls = positive hit
T2 construct: purchased GroPep
Text: as §1, §2, §3, §4, §5

MCF-7 cells = test: 3D Matrigel growth assay of MCF-7 tumor spheroids; type: cell-based, human
Text: FIG. 7 is a photographic and graphical representation showing MCF-7 3D cell growth in response to peptide antagonists. MCF-7 cells suspended in media containing 1% serum and 2.5% Matrigel (Matrigel media) were layered onto a thin layer of 100% Matrigel. Spheroids were allowed to form in Matrigel media containing VN, TRI or TRI supplemented with peptides P7 and P8. Cells were allowed to grow for 14 days with media+proteins changed every 3 days. (A) Phase contrast and fluorescence microscopy was used to obtain images of the spheroids treated with 90 nM P7, P8 or P7+8. The fluorescent images were subjected to analysis using Image J to calculate spheroid sizes. The images post-ImageJ analyses are depicted in the bottom panel of A. All the images depicted are representative images obtained from triplicate experiments with treatments tested in duplicates in each replicate experiment. Scale bar denotes 100 μm. (B) Scatter plot depicts mean spheroid size (μm^2) at Day 14 for each treatment, calculated using Image-J (90 nM peptide treatments are depicted here). Each data point in the graph is the average size of all spheroids present in a single field of view at 40× magnification. ** denotes p<0.01 and * denotes p<0.05. (C) To measure cell viability/proliferation the 3D culture was treated on Day 14 with 5% Alamar Blue dye for 4 hours and fluorescence intensities were recorded. Error bars indicate SEM. ** denotes p<0.01 Vs TRI and * denotes p<0.05 Vs TRI. The experiment was repeated twice with treatments tested in duplicate wells in each replicate experiment. TRI=IGF-I:IGFBP-5:VN trimeric complex (equimolar at 10 nM concentrations).
To closely mimic in vivo conditions, cells were grown in a 3D matrix (Matrigel) closely resembling in vivo extracellular matrix physiology. MCF-7 cells suspended in growth media containing 1% serum and 2.5% Matrigel (Matrigel media) were layered onto a thin layer of 100% Matrigel. Tumor spheroids were allowed to form for 3 days after which spent media was replenished with Matrigel media containing VN only, trimeric complex, or trimeric complex supplemented with increasing concentrations of peptides (P7, P8 or P7+P8). Cells were allowed to grow for additional 11 days with media+proteins changed every 3 days. Spheroid morphology was assessed using phase-contrast microscopy and cell viability was measured using AlamarBlue, a fluorescent metabolic dye.

T1 sequence (P17936 28-291): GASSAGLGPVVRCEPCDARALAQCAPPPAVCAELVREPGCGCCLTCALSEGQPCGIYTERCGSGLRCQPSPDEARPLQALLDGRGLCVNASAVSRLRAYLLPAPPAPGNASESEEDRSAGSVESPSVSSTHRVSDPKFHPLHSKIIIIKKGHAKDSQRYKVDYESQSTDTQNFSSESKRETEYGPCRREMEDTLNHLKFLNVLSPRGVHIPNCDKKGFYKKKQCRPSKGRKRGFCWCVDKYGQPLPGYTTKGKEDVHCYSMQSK
T2 sequence (P01344 25-91 limits assumed): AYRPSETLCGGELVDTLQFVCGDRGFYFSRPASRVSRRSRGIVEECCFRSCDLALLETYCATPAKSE

KTYLFKGSQYWRFEDG [Neg, reference compound]
Binding of IGFBP-3 on VN-peptide array (positive spot or not) (IGFBP-3): did not show any binding
Binding of IGF-II on VN-peptide array (positive spot or not) (IGF-II): did not show any binding

LFSSEESNLGANNYDDYRMDWL (listed as Homo sapiens) [Peptide P7, human VN motif 7 mimic]
Binding of IGFBP-3 on VN-peptide array (positive spot or not) (IGFBP-3): does not bind
Binding of IGF-II on VN-peptide array (positive spot or not) (IGF-II): binds
TRI-stimulated cell viability (AlamarBlue) (MCF-7 cells; 90 nM peptide, Day 14, 3D Matrigel culture): significantly inhibit
Size of TRI-treated tumor spheroids (phase-contrast microscopy) (MCF-7 cells; increasing concentrations of peptides, Matrigel 3D culture, 14 days): decrease with increasing concentrations
